The series can be described thus: yeast display, Sf9 membrane polyspecificity reagent, FACS + sequencing; frameworks hold sequencing errors. The procedure, abridged:
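A synthetic nanobody library was expressed on Saccharomyces cerevisiae BJ5465 by galactose induction for 36–48 hours. The library was stained for 1 hour at 4 °C with 10% biotinylated, detergent-solubilized Sf9 membrane reagent and enriched with streptavidin microbeads before FACS. Low and high (top ~1%) gates were set on anti-HA fluorescence for expression and streptavidin fluorescence for reagent binding, and each polyreactivity label reflects the gate of origin.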
With “QVQLVESGGGLVQAGGSLRLSCAASGSIFGYYTMGWYRQAPGKERELVAAISRRGGSTYYADSVKGRFTISRDNAKKTVYLQMNSLKPEDTAVYYCAADVARSRHFEMDYWGQGTQVTVSS”, the “polyreactivity (PSR sort gate)” value is on record as “high polyreactivity”.
Under “QVQLVESGGGLVQAGGSLRLSCAASGSIFGYYTMGWYRQAPGKERELVAAITRSGATTFYADSVKGRFTISRDKAKNTVYLQMNSLKPEDTAVYYCAAQARGYTRGYWGQGTQVTVSS” stands “high polyreactivity”; under “QVQLVESGGGLVQAGGSLRLSCAASGSIFGYYTMGWYRQAPGKERELVAAITSGGSTNYADSVKGRFTISRDNAKNTVYLQMNSLKPEDTSVYYCAKVSYYPWRYDYWGQGTQVTVSS”, “low polyreactivity”; under “QVQLVESGGGLVQAGGSLRLSCAASGSIFGYYTMGWYRQAPGKERELVAAITSGGSTNYADSVKGRFTISRDNAKNTVYLQMNSLKPEETAVYYCAKVSYYTWRYDYWGQGTQVTVSS”, “low polyreactivity”.
Under “QVQLVESGGGLVQAGGSLRLSCAASGSIFGYYTMGWYRQAPGKERELVARITRGGSTYYADSVKGRFTISRDNAKNTVYLQMNSLKPEDTAVYYCAARRVNAGWTYGLRGNYWGQGTQVTVSS” stands “low polyreactivity”; under “QVQLVESGGGLVQAGGSLRLSCAASGSIFGYYVMGWYRPAPGKERELVAAITRSGSTYYADSVKGRFTISRDNAKNTVYLQMNSLKPEDTAGYYCAADGSYYWYPHTTYDYWGQGTQVTVSS”, “low polyreactivity”.
Under “QVQLVESGGGLVQAGGSLRLSCAASGSIFHANAMGWYRQAPGKERELVAAITRSGRSTYYADSVKGRFTISRDNAKNTVYLQMNSLKPEDTAVYYCAARYYAGGLSSYDYWGQGTQVTVSS” stands “high polyreactivity”; under “QVQLVESGGGLVQAGGSLRLSCAASGSIFHGNAMGWYRQAPGKERELVAAITGRGVSTYYADSVKGRFTISRDNAKNTVYLQMKSLKPEDTAVYYCAAVRSKYWYYQGGYSSYGYWGQGTQVTVSS”, “high polyreactivity”.
Turning to “QVQLVESGGGLVQAGGSLRLSCAASGSIFHIYAIGWYRQAPGKERELVAAISWRGDSTSYADSVKGRFTISRDNAKNTVYLQMNSLKPEDTAVYYCARGYGGYRGYYAKRFGYWGQGTQVTVSS”, the “polyreactivity (PSR sort gate)” value is recorded as “high polyreactivity”.
As for “QVQLVESGGGLVQAGGSLRLSCAASGSIFHLYAMGWYRQAPGKEREFVAAISSSGGRTYYADSVKGRFTISRDNAKNTVYLQMNSLKPEDTAVYYCATAEQYGTKLRQVSYQYDYWGHGTQVTVSS”, the entry is “low polyreactivity”; as for “QVQLVESGGGLVQAGGSLRLSCAASGSIFHPYAMGWYRQAPGKERELVAAISGGGTNTYYADSVKGRFTISRDNAKNTVYLQMNSLKPEDTAVYYCAAERYYWGQGTQVTVSS”, “high polyreactivity”.
As for “QVQLVESGGGLVQAGGSLRLSCAASGSIFHPYAMGWYRQAPGKERELVAAISKSGGNTYYADSVKGRFTISRDNAKNTVYLQMNSLKPEDTAVYYCAALDYWGQVTQVTVSS”, the entry is “low polyreactivity”.
For “QVQLVESGGGLVQAGGSLRLSCAASGSIFHPYGMGWYRQAPGKERELVARISWSTSSTNYADSVKGRFTISRDNAKNTVYLQMNSLKPEDTAVYYCAADYYVFPGYDYWGQGTQVTVSS”, the “polyreactivity (PSR sort gate)” value is listed as “high polyreactivity”.
Under “QVQLVESGGGLVQAGGSLRLSCAASGSIFHPYGMGWYRQAPGKVRELVAAMTSSGGDTYYADSVKGRFTISRDNAKNTVYLQMNSLKPEDTAVYYCAATGLPGYYAYDYWGQGTQVTVSS” stands “low polyreactivity”; under “QVQLVESGGGLVQAGGSLRLSCAASGSIFHRNTMGWYRQAPGKEREFVAGISWGGGRTYYADSVKGRFTISRDNAKNTVYLQMNSLKPEETAVYYCAAKTGGGGRLSTVYYWGQGTQVTLSS”, “high polyreactivity”.
Under “QVQLVESGGGLVQAGGSLRLSCAASGSIFHRYAMGWYTQAPGKERELVAAISWSGGSTYYADSVKGRFTISRDNAKNTVYLQMNSLKPEDTAVYYCNRVAWNYGFGSSAYGYWGQGTQVTVSS” stands “high polyreactivity”; under “QVQLVESGGGLVQAGGSLRLSCAASGSIFHYNAMGWYIQAPGKERELVASISSGGRTYYADSVKGRFTISRDNAKNTVYLQMNSLKPEDTAVYYCAAENFWQTKEYDYWGQGTQVTVSS”, “low polyreactivity”.
Consider “QVQLVESGGGLVQAGGSLRLSCAASGSIFIANAMGWYRKAPGKERELVAAISRSGSTTYYADSVKGRFTISRDNAKNTVYLQMNSLKPEDTAVNYCNARYSLHSYYWFIYDSWGQGTQVTVSS”, for which the “polyreactivity (PSR sort gate)” value is on record as “low polyreactivity”.
As for “QVQLVESGGGLVQAGGSLRLSCAASGSIFIANTMGWYRQAPGKERELVAAISSDGGSTYYADSVKGRFTISRDNAKNTVYLQMNSLKPVDTAVYYCAVDGLEIGDTGFDYWGQGTQVTVSS”, the entry is “low polyreactivity”; as for “QVQLVESGGGLVQAGGSLRLSCAASGSIFIAYGMGWYRQEPGKERELVAAITVSGGNTYYADSVKGRFTISRDNAKNTVYLQMNSLKPEDTAVYYCAADYWYYYGKVLYDYWGQGTQVTVSS”, “low polyreactivity”; as for “QVQLVESGGGLVQAGGSLRLSCAASGSIFIGYAMGWYRQAPGKERELVAAITNGGRTYYADSVKGRFTISRDNAKNTVYLQMNSLKPEDTAVYYCAAVPSQTYRRTPYLWHDYWGQGTQVTVSS”, “high polyreactivity”.
Under “QVQLVESGGGLVQAGGSLRLSCAASGSIFIIYAMGWYRQAPGKERALVAAISRGGTSTYADSVKGRFTISRDNAKNTVYLQMNSLKPEDTAVYYCNARRSSRTNRYNYWGQGTQVTVSS” stands “high polyreactivity”; under “QVQLVESGGGLVQAGGSLRLSCAASGSIFIPYAMGWYRQAPGKERELVAAIRDSGASTYYADSVKGRFTISRDNAKNTVYLQMNSLKPEDTAVYYCAVRFYDWRYYYWGQGTQVTVSS”, “high polyreactivity”; under “QVQLVESGGGLVQAGGSLRLSCAASGSIFIPYAMGWYRQAPGKERELVAAISRRGGSTYYADSVKGRFTISRDNAKNTVYLQMNSLKPEDTAVYYCNKDVNAYGYFEYYYWGQGTQVTVSS”, “low polyreactivity”.
On to “QVQLVESGGGLVQAGGSLRLSCAASGSIFIRNAMGWYRQAPGKERELVAAISWGGARTYYADSVKWRFTISRDNAKNTVYLQMNSLKPEDTAVYYCNALNVRGNKFDYWGQGTQVSVSS”, for which the “polyreactivity (PSR sort gate)” value is given as “high polyreactivity”.
Under “QVQLVESGGGLVQAGGSLRLSCAASGSIFIRNAMGWYRQAPGKERELVASISRSGAYTRYADSVKGRFTISRDNAKNTVYLQMNSLKPEDTAVYYCAVRLVNYLSYWRTYNYWGQGTQVTVSS” stands “high polyreactivity”; under “QVQLVESGGGLVQAGGSLRLSCAASGSIFIRNVMGWSRQAPGKERELVAAISSRGGSTYYADSVKGRFTISRDNAKNTVDLQMNSLKPEDTAVYYCNRYSYLFPYYWKYDYWGQGTQVTVSS”, “high polyreactivity”; under “QVQLVESGGGLVQAGGSLRLSCAASGSIFISNAMGWYRQAPGKERELFAAINWTTGRTRYADSVKGRFTISRDNAKNTVYLQMNSLKPEDTAVYYCAARPYGGGRRSIYYYWGQGNQVTVSS”, “high polyreactivity”.
Regarding “QVQLVESGGGLVQAGGSLRLSCAASGSIFISNAMGWYRQAPGKERELVAAISRSGARTYYADSVKGRFTISRDNAKNTVYLQMNSLKPEDTAVYYCAVDGYSPYKYDYWGQGTQVTVSS”, the “polyreactivity (PSR sort gate)” value was “high polyreactivity”.
For the sequence “QVQLVESGGGLVQAGGSLRLSCAASGSIFISNAMGWYRQAPGKERELVAAITSSGGSTYYADSVKGRFTISRDNAKNTVYLQMNSLKPEDTAVYYCAARPGRNYYYWGQGTQVTVSS”, the “polyreactivity (PSR sort gate)” value is reported as “high polyreactivity”.
As for “QVQLVESGGGLVQAGGSLRLSCAASGSIFITYAMGWYRQAPGKERELVAAIRDSGDRTYYADSVKGRFTISRDNAKNTVYLQMNSLKPEDTAVYYCTARCQEPLKYDYSGQGTQVTVSS”, the entry is “low polyreactivity”.
Under “QVQLVESGGGLVQAGGSLRLSCAASGSIFITYAMGWYRQAPGKERELVAAITDSGDSTYYADSVKGRFTISRDNAKNTVYLQMISLKPEDTAVYYCAKRYYGSYSHFIRTDGYWGQGTQVTVSS” stands “low polyreactivity”; under “QVQLVESGGGLVQAGGSLRLSCAASGSIFITYARGWYRQAPGKERELVAAIRDSGDRTYYADSVKGRFTISRDNAKNTVYLQMISLKPEDTAVYYCNARWQEPLKYDYWGQGTQVTVSS”, “low polyreactivity”.
For “QVQLVESGGGLVQAGGSLRLSCAASGSIFIVNDMGWYRQAPGKERELVAAISGRGGNTNYADSVKVRFTISRDNAKNTVYLQMNSLKPEDTSVYFCAARHTRDYDYWGQGTQVTVSS”, the “polyreactivity (PSR sort gate)” value is listed as “high polyreactivity”.
Take “QVQLVESGGGLVQAGGSLRLSCAASGSIFIVYAMGWYRQAPGKERELVAAISWSGGSTYYADSVKGRFTISRDNAKNTVYLQMNSLKPEDTAVYYCAAKYTLPFRDVKYYSWGQGTQVTVSS”: the “polyreactivity (PSR sort gate)” value is on record as “high polyreactivity”.
Under “QVQLVESGGGLVQAGGSLRLSCAASGSIFIVYAMGWYRQAPGKERELVAGIRGRGGSTYYADSVKGRFTISRDNAKNTVYLQMNSLKPEDTAVYYCAANPRSYQSPYGYWGQGTQVTVSS” stands “high polyreactivity”; under “QVQLVESGGGLVQAGGSLRLSCAASGSIFIVYAMGWYRQAPGKERELVATITSGGSTNYADSVKGRFTISRDNAKNTVYVQMNSLKPEVTAVYYCAAESYWGSGVVPGYDYWGQGTQVTVSS”, “low polyreactivity”.
As for “QVQLVESGGGLVQAGGSLRLSCAASGSIFIWNALGCYRQAPGKERELVAAIRSSGGTTYYADSVKGRFTISRDNAKYTVYVQMNSLKPEDTAVYYCARRGYSSSYRYPRYYYWGQGTQVTVSS”, the entry is “high polyreactivity”.
Under “QVQLVESGGGLVQAGGSLRLSCAASGSIFIWNAMGWYRQAPGKERELVAAISFSGGSTYYADSVKGRFTISRDNAKNTVYLQMNSLKPEDTAVYYCAADSFSGRYYWWEYDYWGQGTQVTVSS” stands “low polyreactivity”; under “QVQLVESGGGLVQAGGSLRLSCAASGSIFIWNAMGWYRQAPGKERELVAAISFSGGSTYYADSVKGRFTISRDNAKNTVYLQMNSLKPEDTAVYYCAADSYSGRYYWWEYDYWGQGTQVTVSS”, “low polyreactivity”.
For the sequence “QVQLVESGGGLVQAGGSLRLSCAASGSIFIYNARGWYRQAPGKERELVAAINWTGGSTYYADSVKGRFTISRDNAKNTVYLQMNSLKPEDTAVYYCNALRYGSTRGYDYWGQGTQVTVSS”, the “polyreactivity (PSR sort gate)” value was “high polyreactivity”.
